# Key:
# [1] = target: T1, FcγRIa extracellular domain with C-terminal His tag (human, UniProt P12314 16-292); test: SPR (Biacore), relative FcγRIa binding, GpH7-B3/GpL16-k0 (HoCon Ab) = 100
# T1 construct: extracellular domain; soluble analyte in Biacore; also called FcgRI; CD64
# [2] = target: T2, FcγRIIb extracellular domain with C-terminal His tag (human, UniProt P31994 43-217); test: SPR (Biacore), relative binding
# T2 construct: extracellular domain; also called FcgRIIb; 2b; not shown: His tag attached to the C terminus
# T2 sequence (looked up): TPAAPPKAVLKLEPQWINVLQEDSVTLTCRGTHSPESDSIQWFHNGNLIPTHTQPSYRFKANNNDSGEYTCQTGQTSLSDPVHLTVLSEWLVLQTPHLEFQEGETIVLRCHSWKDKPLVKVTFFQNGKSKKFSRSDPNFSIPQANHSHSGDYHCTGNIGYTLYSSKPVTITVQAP
# [3] = target: T3, FcγRIIIa extracellular domain with C-terminal His tag (human, UniProt P08637 17-208); test: SPR (Biacore), relative binding
# T3 construct: extracellular domain; also called FcgRIIIa; 3a; not shown: His tag attached to the C terminus
# T3 sequence (P08637 17-208): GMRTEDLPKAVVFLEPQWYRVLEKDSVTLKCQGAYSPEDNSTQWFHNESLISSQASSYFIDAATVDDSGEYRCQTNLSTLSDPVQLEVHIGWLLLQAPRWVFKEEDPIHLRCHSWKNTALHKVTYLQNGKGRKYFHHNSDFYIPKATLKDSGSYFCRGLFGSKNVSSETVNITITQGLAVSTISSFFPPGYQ
# [4] = target: T3, FcγRIIIa extracellular domain with …; test: SPR (Biacore); He/Con_3a divided by He/Con_2b (reference: binding to FcγRIIb)
# Summary of the method: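 First, antigen peptide is immobilized on a CM5 chip by amine coupling or, biotinylated, on an SA chip. Next, the antibody is captured and FcγR diluted in running buffer HBS-EP+ is passed over at 25° C. Finally, 10 mM glycine-HCl, pH 1.5 strips the antibody.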
# T1 sequence (P12314 16-292): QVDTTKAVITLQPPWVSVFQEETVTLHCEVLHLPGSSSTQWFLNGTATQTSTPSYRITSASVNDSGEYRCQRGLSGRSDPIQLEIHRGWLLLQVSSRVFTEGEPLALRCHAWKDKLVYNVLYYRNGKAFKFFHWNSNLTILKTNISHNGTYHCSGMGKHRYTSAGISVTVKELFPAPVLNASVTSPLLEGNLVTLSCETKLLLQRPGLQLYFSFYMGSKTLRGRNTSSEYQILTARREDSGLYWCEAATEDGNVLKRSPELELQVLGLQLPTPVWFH
Binder,Ho/Con_1a [1],He/Con_2b (IIb binding) [2],He/Con_3a (IIIa binding) [3],He_3a/2b (IIIa/IIb) [4]
"GpH7-B3 variant K326_03V/GpL16-k0 (antibody, human IgG1, kappa, homodimerized antibody, mutation in both H chains; also called K326_03V Ho Ab) heavy: not shown light: DIVMTQSPLSLPVTPGEPASISCQASESLVHSNRNTYLHWYLQKPGQSPQLLIYKVSNRFSGVPDRFSGSGSGTDFTLKISRVEAEDVGVYYCSQNTHVPPTFGQGTKVEIERTVAAPSVFIFPPSDEQLKSGTASVVCLLNNFYPREAKVQWKVDNALQSGNSQESVTEQDSKDSTYSLSSTLTLSKADYEKHKVYACEVTHQGLSSPVTKSFNRGEC",103 % of control,,,
"GpH7-B3 variant K326_04F/GpL16-k0 (antibody, human IgG1, kappa, homodimerized antibody, mutation in both H chains; also called K326_04F Ho Ab) heavy: not shown light: DIVMTQSPLSLPVTPGEPASISCQASESLVHSNRNTYLHWYLQKPGQSPQLLIYKVSNRFSGVPDRFSGSGSGTDFTLKISRVEAEDVGVYYCSQNTHVPPTFGQGTKVEIERTVAAPSVFIFPPSDEQLKSGTASVVCLLNNFYPREAKVQWKVDNALQSGNSQESVTEQDSKDSTYSLSSTLTLSKADYEKHKVYACEVTHQGLSSPVTKSFNRGEC",102 % of control,,,
"GpH7-A5/GpH7-B3 variant Y296_11K/GpL16-k0 (antibody, human IgG1, kappa, Heterodimerized IgG1; alteration in one H chain only; also called He Ab) heavy 1: not shown heavy 2: not shown light: DIVMTQSPLSLPVTPGEPASISCQASESLVHSNRNTYLHWYLQKPGQSPQLLIYKVSNRFSGVPDRFSGSGSGTDFTLKISRVEAEDVGVYYCSQNTHVPPTFGQGTKVEIERTVAAPSVFIFPPSDEQLKSGTASVVCLLNNFYPREAKVQWKVDNALQSGNSQESVTEQDSKDSTYSLSSTLTLSKADYEKHKVYACEVTHQGLSSPVTKSFNRGEC",,72.8 % of GpH7-A5/GpH7-B3/GpL16-k0 (=100),56.7 % of GpH7-A5/GpH7-B3/GpL16-k0 (=100),0.78 ratio
"GpH7-B3 variant K326_09D/GpL16-k0 (antibody, human IgG1, kappa, homodimerized antibody, mutation in both H chains; also called K326_09D Ho Ab) heavy: not shown light: DIVMTQSPLSLPVTPGEPASISCQASESLVHSNRNTYLHWYLQKPGQSPQLLIYKVSNRFSGVPDRFSGSGSGTDFTLKISRVEAEDVGVYYCSQNTHVPPTFGQGTKVEIERTVAAPSVFIFPPSDEQLKSGTASVVCLLNNFYPREAKVQWKVDNALQSGNSQESVTEQDSKDSTYSLSSTLTLSKADYEKHKVYACEVTHQGLSSPVTKSFNRGEC",106 % of control,,,
"GpH7-B3 variant I336_16H/GpL16-k0 (antibody, human IgG1, kappa, homodimerized antibody, mutation in both H chains; also called I336_16H Ho Ab) heavy: not shown light: DIVMTQSPLSLPVTPGEPASISCQASESLVHSNRNTYLHWYLQKPGQSPQLLIYKVSNRFSGVPDRFSGSGSGTDFTLKISRVEAEDVGVYYCSQNTHVPPTFGQGTKVEIERTVAAPSVFIFPPSDEQLKSGTASVVCLLNNFYPREAKVQWKVDNALQSGNSQESVTEQDSKDSTYSLSSTLTLSKADYEKHKVYACEVTHQGLSSPVTKSFNRGEC",114 % of control,,,
"GpH7-A5/GpH7-B3 variant Y296_14T/GpL16-k0 (antibody, human IgG1, kappa, Heterodimerized IgG1; alteration in one H chain only; also called He Ab) heavy 1: not shown heavy 2: not shown light: DIVMTQSPLSLPVTPGEPASISCQASESLVHSNRNTYLHWYLQKPGQSPQLLIYKVSNRFSGVPDRFSGSGSGTDFTLKISRVEAEDVGVYYCSQNTHVPPTFGQGTKVEIERTVAAPSVFIFPPSDEQLKSGTASVVCLLNNFYPREAKVQWKVDNALQSGNSQESVTEQDSKDSTYSLSSTLTLSKADYEKHKVYACEVTHQGLSSPVTKSFNRGEC",,88.2 % of GpH7-A5/GpH7-B3/GpL16-k0 (=100),64.5 % of GpH7-A5/GpH7-B3/GpL16-k0 (=100),0.73 ratio
"GpH7-B3 variant K326_06M/GpL16-k0 (antibody, human IgG1, kappa, homodimerized antibody, mutation in both H chains; also called K326_06M Ho Ab) heavy: not shown light: DIVMTQSPLSLPVTPGEPASISCQASESLVHSNRNTYLHWYLQKPGQSPQLLIYKVSNRFSGVPDRFSGSGSGTDFTLKISRVEAEDVGVYYCSQNTHVPPTFGQGTKVEIERTVAAPSVFIFPPSDEQLKSGTASVVCLLNNFYPREAKVQWKVDNALQSGNSQESVTEQDSKDSTYSLSSTLTLSKADYEKHKVYACEVTHQGLSSPVTKSFNRGEC",104 % of control,,,
"GpH7-A5/GpH7-B3 variant Y296_13S/GpL16-k0 (antibody, human IgG1, kappa, Heterodimerized IgG1; alteration in one H chain only; also called He Ab) heavy 1: not shown heavy 2: not shown light: DIVMTQSPLSLPVTPGEPASISCQASESLVHSNRNTYLHWYLQKPGQSPQLLIYKVSNRFSGVPDRFSGSGSGTDFTLKISRVEAEDVGVYYCSQNTHVPPTFGQGTKVEIERTVAAPSVFIFPPSDEQLKSGTASVVCLLNNFYPREAKVQWKVDNALQSGNSQESVTEQDSKDSTYSLSSTLTLSKADYEKHKVYACEVTHQGLSSPVTKSFNRGEC",,86.3 % of GpH7-A5/GpH7-B3/GpL16-k0 (=100),61.8 % of GpH7-A5/GpH7-B3/GpL16-k0 (=100),0.72 ratio
"GpH7-A5/GpH7-B3 variant Y296_16H/GpL16-k0 (antibody, human IgG1, kappa, Heterodimerized IgG1; alteration in one H chain only; also called He Ab) heavy 1: not shown heavy 2: not shown light: DIVMTQSPLSLPVTPGEPASISCQASESLVHSNRNTYLHWYLQKPGQSPQLLIYKVSNRFSGVPDRFSGSGSGTDFTLKISRVEAEDVGVYYCSQNTHVPPTFGQGTKVEIERTVAAPSVFIFPPSDEQLKSGTASVVCLLNNFYPREAKVQWKVDNALQSGNSQESVTEQDSKDSTYSLSSTLTLSKADYEKHKVYACEVTHQGLSSPVTKSFNRGEC",,92.2 % of GpH7-A5/GpH7-B3/GpL16-k0 (=100),73.4 % of GpH7-A5/GpH7-B3/GpL16-k0 (=100),0.8 ratio

# From patent US20180155451A1 (published 2018)
